Drawing on article PMC9170038, “Crowdsourced RNA design discovers diverse, reversible, efficient, self-contained molecular switches”, this text covers Kd for two molecules.

Series [1] addresses T1, MS2 coat protein, dlFG mutant (Escherichia phage MS2, UniProt P03612, del68-81insG). Briefly: 4 mM Mg2+; theophylline 2 mM; RNA-MaP array; 100 mM Tris-HCl pH 7.5, 80 mM KCl, 4 mM MgCl2, 0.1 mg/mL BSA, 1 mM DTT, 0.01 mg/mL yeast tRNA, 0.01% Tween-20; protein 1.5 nM to 3 uM; 37 C (Table S3). As to conditions: chain copies: 2; label: tethered by stalled RNA polymerase.
The target of series [2] is T1, MS2 coat protein, dlFG mutant. Description: 4 mM Mg2+; miR-208a RNA 100 nM (AU…UUGU); RNA-MaP array; 100 mM Tris-HCl pH 7.5, 80 mM KCl, 4 mM MgCl2, 0.1 mg/mL BSA, 1 mM DTT, 0.01 mg/mL yeast tRNA, 0.01% Tween-20; protein 1.5 nM to 3 uM; 37 C (Table S3). Conditions: chain copies: 2; label: tethered by stalled RNA polymerase.

B1: Eterna 7618605 (Same State - Theophylline A) (ssRNA)
RNA: UGUAACAUGAGGAUCACCCAUGUGAGUGAUACCAGAUUAGUAUUAGUCCCUUGGCAGCACAUUGGGCGAGUGUAUAGUCUAUGCG
For orientation: Kd means the free concentration of one partner at which half of the binding sites on the other are occupied at equilibrium, for simple one-to-one binding. In turn, B1 gave an equilibrium dissociation constant (Kd) in series [1] of 109 nM.

B2: Eterna 12069 (Sensor v3, turn-off variant 1) (ssRNA)
RNA: UGUUGUUGUUUCCGUUCUUACAUGAGGAUCACCCAUGUUUCUUGUCGUGCUCGCGUUGCUCGUCAGACUACCUGUUG
The molecule B2 yielded a dissociation constant (Kd) in series [2] of 111 nM.
